From the supplement of paper PMC10065799, “High-throughput profiling of sequence recognition by tyrosine kinases and SH2 domains using bacterial peptide display” (eLife, 2023)

What was measured:
[1] = target: Grb2 SH2 (UniProt P62993); experiment: SH2 binding enrichment of the phosphorylated peptide, bacterial display (enrichment ratio); higher = better substrate or ligand; peptides without Tyr show the background
[2] = target: c-Src SH2; experiment: as above
[3] = target: SHP2-C SH2; experiment: as above
[4] = target: FGFR3 (UniProt P22607); experiment: phosphorylation enrichment, bacterial display (enrichment ratio); higher = better substrate or ligand; peptides without Tyr show the background
[5] = target: Fyn (UniProt P06241); experiment: as above
[6] = target: MERTK (UniProt Q12866); experiment: as above
Sequence of MERTK (Q12866 whole entry, looked up): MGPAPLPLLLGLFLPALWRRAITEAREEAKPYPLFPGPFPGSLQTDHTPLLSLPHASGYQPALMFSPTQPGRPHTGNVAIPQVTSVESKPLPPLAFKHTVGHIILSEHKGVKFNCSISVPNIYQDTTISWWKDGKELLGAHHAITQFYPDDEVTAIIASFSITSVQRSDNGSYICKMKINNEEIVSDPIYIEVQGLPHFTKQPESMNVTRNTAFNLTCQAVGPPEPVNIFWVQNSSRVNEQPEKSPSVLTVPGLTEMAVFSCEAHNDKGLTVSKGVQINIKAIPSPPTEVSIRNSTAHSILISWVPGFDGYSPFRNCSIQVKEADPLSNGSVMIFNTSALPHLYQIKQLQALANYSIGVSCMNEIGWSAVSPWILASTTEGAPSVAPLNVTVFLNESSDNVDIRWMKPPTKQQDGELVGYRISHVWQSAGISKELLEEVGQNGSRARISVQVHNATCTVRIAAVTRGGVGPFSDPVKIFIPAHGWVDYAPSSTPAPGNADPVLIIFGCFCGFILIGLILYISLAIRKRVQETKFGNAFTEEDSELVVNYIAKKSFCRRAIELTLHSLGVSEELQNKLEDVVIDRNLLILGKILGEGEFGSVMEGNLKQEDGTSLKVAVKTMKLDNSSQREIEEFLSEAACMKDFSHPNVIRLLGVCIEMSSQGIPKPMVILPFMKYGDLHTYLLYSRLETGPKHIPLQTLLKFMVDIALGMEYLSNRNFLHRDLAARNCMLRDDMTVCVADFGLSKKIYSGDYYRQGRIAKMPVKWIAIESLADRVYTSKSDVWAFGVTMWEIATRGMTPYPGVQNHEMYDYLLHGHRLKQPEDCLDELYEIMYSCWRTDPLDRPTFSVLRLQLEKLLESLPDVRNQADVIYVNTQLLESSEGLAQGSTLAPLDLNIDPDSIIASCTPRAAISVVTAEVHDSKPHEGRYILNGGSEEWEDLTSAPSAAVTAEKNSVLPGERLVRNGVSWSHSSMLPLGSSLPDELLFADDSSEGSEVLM

[7] = target: Jak2 (UniProt O60674); experiment: as above
[8] = tested on: AncSZ; experiment: as above
[9] = target: EPHB1 (UniProt P54762); experiment: as above
Sequence of EPHB1 (P54762 whole entry, looked up): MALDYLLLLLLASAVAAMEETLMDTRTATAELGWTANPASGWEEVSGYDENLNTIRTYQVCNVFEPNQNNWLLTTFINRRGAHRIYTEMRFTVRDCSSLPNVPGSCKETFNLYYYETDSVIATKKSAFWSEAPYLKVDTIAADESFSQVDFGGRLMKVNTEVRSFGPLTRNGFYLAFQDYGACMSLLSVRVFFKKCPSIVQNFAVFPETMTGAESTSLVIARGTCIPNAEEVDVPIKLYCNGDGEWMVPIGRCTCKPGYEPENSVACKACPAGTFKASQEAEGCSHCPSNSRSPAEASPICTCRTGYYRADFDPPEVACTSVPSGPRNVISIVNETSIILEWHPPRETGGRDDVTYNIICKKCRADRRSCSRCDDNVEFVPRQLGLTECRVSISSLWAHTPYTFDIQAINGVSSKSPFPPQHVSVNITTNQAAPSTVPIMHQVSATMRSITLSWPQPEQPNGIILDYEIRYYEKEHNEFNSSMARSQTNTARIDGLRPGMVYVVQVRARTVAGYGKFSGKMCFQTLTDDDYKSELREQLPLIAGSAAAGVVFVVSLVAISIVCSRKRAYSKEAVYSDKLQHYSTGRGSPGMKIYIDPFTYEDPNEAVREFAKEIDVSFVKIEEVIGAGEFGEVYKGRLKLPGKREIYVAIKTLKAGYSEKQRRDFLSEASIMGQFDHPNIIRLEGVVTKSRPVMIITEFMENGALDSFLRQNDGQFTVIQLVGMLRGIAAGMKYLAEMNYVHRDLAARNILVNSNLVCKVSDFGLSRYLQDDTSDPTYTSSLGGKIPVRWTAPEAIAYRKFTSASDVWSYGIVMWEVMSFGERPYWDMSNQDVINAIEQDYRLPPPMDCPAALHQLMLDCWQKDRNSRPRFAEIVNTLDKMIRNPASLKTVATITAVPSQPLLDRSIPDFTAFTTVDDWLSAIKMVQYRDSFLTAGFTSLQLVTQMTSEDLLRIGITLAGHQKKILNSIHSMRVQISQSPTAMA

[10] = tested on: Fer (mouse); experiment: as above
[11] = target: Hck (UniProt P08631); experiment: as above
[12] = target: EPHB2 (UniProt P29323); experiment: as above
Sequence of EPHB2 (P29323 whole entry, looked up): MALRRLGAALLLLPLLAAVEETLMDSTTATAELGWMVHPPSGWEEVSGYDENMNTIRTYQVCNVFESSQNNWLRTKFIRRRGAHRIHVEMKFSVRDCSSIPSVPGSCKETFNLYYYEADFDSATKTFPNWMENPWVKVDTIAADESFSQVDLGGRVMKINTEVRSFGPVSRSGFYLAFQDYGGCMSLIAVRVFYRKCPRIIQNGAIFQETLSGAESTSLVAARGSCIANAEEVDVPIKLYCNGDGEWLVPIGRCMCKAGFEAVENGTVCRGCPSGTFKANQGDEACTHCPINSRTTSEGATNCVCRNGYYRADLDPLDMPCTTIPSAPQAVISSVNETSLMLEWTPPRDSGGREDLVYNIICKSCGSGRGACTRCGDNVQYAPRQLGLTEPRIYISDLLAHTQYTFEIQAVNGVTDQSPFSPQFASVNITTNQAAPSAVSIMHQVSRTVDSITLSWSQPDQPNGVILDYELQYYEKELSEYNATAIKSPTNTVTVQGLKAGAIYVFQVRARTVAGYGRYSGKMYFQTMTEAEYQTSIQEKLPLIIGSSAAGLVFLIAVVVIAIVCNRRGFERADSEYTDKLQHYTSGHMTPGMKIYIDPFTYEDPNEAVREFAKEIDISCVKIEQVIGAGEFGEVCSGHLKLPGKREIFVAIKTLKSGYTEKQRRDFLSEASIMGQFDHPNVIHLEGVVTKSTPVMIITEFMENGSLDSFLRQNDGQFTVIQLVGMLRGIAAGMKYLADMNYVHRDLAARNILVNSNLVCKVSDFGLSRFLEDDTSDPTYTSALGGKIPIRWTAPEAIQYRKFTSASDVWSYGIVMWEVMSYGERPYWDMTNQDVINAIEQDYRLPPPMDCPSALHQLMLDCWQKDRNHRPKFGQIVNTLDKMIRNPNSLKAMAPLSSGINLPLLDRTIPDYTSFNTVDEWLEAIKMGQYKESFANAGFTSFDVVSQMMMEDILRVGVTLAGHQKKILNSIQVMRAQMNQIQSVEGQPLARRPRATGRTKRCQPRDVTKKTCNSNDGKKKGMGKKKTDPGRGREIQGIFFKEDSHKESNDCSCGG

[13] = target: Fes (UniProt P07332); experiment: as above
Sequence of Fes (P07332 whole entry, looked up): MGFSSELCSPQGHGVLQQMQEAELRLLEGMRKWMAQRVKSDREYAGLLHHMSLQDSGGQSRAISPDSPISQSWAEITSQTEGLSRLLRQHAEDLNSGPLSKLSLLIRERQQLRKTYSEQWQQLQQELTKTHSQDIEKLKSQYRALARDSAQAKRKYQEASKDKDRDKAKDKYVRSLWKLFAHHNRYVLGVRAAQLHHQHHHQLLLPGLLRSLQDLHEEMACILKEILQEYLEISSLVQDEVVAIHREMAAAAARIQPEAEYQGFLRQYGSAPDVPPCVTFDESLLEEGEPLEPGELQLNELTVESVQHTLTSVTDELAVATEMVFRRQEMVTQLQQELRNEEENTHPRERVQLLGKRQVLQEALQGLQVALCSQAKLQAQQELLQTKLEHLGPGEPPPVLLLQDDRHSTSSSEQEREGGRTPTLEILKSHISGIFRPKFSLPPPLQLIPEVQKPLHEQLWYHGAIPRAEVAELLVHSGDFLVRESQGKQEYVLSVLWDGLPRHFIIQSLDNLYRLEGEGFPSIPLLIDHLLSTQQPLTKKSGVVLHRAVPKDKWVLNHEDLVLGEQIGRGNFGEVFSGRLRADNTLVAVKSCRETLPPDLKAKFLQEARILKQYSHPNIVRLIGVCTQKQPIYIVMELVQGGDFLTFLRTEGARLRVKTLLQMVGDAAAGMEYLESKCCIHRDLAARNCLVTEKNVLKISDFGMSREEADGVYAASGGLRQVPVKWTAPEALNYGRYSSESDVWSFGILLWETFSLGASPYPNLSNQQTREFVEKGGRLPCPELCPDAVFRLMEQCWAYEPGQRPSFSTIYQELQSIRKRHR

[14] = tested on: c-Abl (mouse); experiment: as above
[15] = tested on: c-Src; experiment: as above
[16] = target: FGFR1 (UniProt P11362); experiment: as above
Sequence of FGFR1 (P11362 whole entry, looked up, the tested form may be a part): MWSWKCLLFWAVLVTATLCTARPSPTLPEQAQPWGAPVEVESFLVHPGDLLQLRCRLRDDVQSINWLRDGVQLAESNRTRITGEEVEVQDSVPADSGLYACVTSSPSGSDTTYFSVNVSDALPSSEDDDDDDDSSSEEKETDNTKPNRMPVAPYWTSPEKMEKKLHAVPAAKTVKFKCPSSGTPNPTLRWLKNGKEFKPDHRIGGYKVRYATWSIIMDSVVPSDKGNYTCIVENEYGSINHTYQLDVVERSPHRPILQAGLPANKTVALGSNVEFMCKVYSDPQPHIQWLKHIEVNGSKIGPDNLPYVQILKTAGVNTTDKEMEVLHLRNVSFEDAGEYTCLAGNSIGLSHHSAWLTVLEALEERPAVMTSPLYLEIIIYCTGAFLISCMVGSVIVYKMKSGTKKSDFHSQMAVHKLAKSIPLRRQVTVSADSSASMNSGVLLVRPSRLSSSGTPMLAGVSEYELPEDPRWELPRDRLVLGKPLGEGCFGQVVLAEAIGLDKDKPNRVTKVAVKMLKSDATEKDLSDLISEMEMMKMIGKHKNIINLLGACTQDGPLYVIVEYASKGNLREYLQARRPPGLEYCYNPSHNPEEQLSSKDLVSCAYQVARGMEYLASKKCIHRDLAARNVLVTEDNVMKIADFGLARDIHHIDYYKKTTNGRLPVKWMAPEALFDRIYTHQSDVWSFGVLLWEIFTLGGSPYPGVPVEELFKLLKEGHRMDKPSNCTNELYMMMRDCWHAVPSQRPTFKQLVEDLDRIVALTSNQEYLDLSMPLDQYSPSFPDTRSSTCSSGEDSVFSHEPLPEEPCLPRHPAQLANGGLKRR
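Wherever SH2 binding enrichment of the phosphorylated peptide, bacterial display is given: peptide library displayed on the E. coli surface as eCPX fusions, selected cells deep-sequenced, score is each peptide's frequency after selection divided by its frequency in the input.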
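Wherever phosphorylation enrichment, bacterial display is given: 11-residue human phosphosite peptides and single-mutation variants displayed on the E. coli surface, counted by deep sequencing, each peptide's frequency after selection divided by its frequency in the unselected input library; frequency after pTyr selection over input frequency; kinase dosed for 20-30% of maximal phosphorylation in three min.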

Sequence of Grb2 SH2 (P62993 whole entry, looked up): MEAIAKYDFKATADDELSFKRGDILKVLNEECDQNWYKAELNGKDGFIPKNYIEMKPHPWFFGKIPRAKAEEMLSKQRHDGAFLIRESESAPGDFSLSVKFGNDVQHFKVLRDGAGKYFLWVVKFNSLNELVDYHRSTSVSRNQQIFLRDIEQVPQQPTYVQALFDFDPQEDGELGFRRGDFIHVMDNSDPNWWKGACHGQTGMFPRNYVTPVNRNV

Sequence	SH2 binding enrichment [1]	SH2 binding enrichment [2]	SH2 binding enrichment [3]	phosphorylation enrichment [4]	phosphorylation enrichment [5]	phosphorylation enrichment [6]	phosphorylation enrichment [7]	phosphorylation enrichment [8]	phosphorylation enrichment [9]	phosphorylation enrichment [10]	phosphorylation enrichment [11]	phosphorylation enrichment [12]	phosphorylation enrichment [13]	phosphorylation enrichment [14]	phosphorylation enrichment [15]	phosphorylation enrichment [16]
LKGIRYLTSGL [PIGA_Y82_R77L]	1.32	0.564	1.03	0.452	1.05	0.644	0.959	1.03	1.12	1.01	0.937	0.913	1.09	1.28	0.762	0.691
LKLWDYSRGRC [WDR5B_Y239]	0.99	0.74	0.501	0.694	0.66	0.736	0.724	0.966	0.73	0.796	0.451	1.01	1.19	0.643	0.39	0.597
LKSEMYQKLFK [RGS13_Y146_L150F]	0.829	0.982	1.24	0.923	0.493	0.7	1.77	1.02	0.5	0.596	0.756	0.614	0.993	0.769	0.626	0.715
LKVDVYGRSHK [FUT3_Y222]	0.715	0.561	0.621	1.1	0.324	0.37	0.588	1	0.553	0.441	0.625	0.778	0.869	0.629	0.379	0.782
LLFRVYGLESL [INSR_Y94]	0.718	0.588	0.734	1.4	0.752	0.792	1.77	1.88	0.96	0.757	0.465	0.828	1.76	1.15	0.565	0.542
LLKKIYLMLDN [STAT1_Y203_M202I]	0.899	0.896	1.1	1.31	0.562	0.822	2.05	1.85	1.15	0.67	0.85	0.817	2.38	1.85	0.977	1.08
LLNAIYLSAKR [SERPING1_Y294_W299R]	1.64	1.11	1.59	0.963	0.86	0.947	1.65	1.58	0.659	0.85	1.36	0.846	1.43	1.61	1.09	0.617
LLVVLCKYRCY [PSEN1_Y154_Y154C]	1.66	1.33	1.99	0.536	0.377	0.315	0.786	0.873	0.532	0.353	0.382	0.466	1.01	0.606	0.369	0.414
LNTFHHAGVSA [POLR2A_Y1109_Y1109H]	0.956	0.547	0.65	0.731	0.356	0.883	1.19	0.884	0.632	0.766	0.575	0.76	2.04	1.36	1.17	0.462
LQTFHYHGHSM [PDHA1_Y289_R288H_YF]	1.47	1.27	1.47	0.536	0.501	0.501	0.641	0.599	0.322	0.435	0.533	0.448	0.715	0.493	1.2	0.419
LQTYRYHGLSM [PDHA1_Y289_H292L]	1.25	0.399	0.815	0.915	0.703	0.443	0.576	0.927	0.673	0.572	0.648	0.746	1.13	0.564	0.471	0.749
LREIRYQGGNR [VWF_Y1570_V1565L]	0.835	0.454	0.504	0.551	0.756	0.52	0.643	0.796	0.385	0.537	0.469	0.518	0.636	0.653	0.488	0.671
LRGVIYVILRK [PMP22_Y153_S149R]	0.893	0.373	0.359	0.833	0.65	0.393	1.15	2.21	0.58	0.577	0.509	0.551	1.09	0.778	0.713	0.665
LRNIDYFRLDG [ATRX_Y2083_YF]	0.761	0.595	22.6	10.8	2.77	3.41	26.8	3.71	2.95	1.7	1.63	3.05	4.09	5.39	3.74	21.5
